Measurements from patent US20250145711A1 (Janssen / Centocor, published 2025).

B1: CD3B2030 N106F (scFv)
scFv: QVQLVQSGAEVKKPGSSVKVSCKASGYTFTRSTMHWVKQAPGQGLEWIGYINPSSAYTNYNQKFQGRVTLTADKSTSTAYMELSSLRSEDTAVYYCASPQVHYDYFGFPYWGQGTLVTVSSGGSEGKSSGSGSESKSTGGSEIVLTQSPATLSASPGERVTLSCSASSSVSYMNWYQQKPGQAPRRWIYDSSKLASGVPARFSGSGSGRDYTLTISSLEPEDFAVYYCQQWSRNPPTFGGGTKVEIK
B2: CD3B2030 N106G (scFv)
scFv: QVQLVQSGAEVKKPGSSVKVSCKASGYTFTRSTMHWVKQAPGQGLEWIGYINPSSAYTNYNQKFQGRVTLTADKSTSTAYMELSSLRSEDTAVYYCASPQVHYDYGGFPYWGQGTLVTVSSGGSEGKSSGSGSESKSTGGSEIVLTQSPATLSASPGERVTLSCSASSSVSYMNWYQQKPGQAPRRWIYDSSKLASGVPARFSGSGSGRDYTLTISSLEPEDFAVYYCQQWSRNPPTFGGGTKVEIK
B3: CD3B2030 N106S (scFv)
scFv: QVQLVQSGAEVKKPGSSVKVSCKASGYTFTRSTMHWVKQAPGQGLEWIGYINPSSAYTNYNQKFQGRVTLTADKSTSTAYMELSSLRSEDTAVYYCASPQVHYDYSGFPYWGQGTLVTVSSGGSEGKSSGSGSESKSTGGSEIVLTQSPATLSASPGERVTLSCSASSSVSYMNWYQQKPGQAPRRWIYDSSKLASGVPARFSGSGSGRDYTLTISSLEPEDFAVYYCQQWSRNPPTFGGGTKVEIK
B4: CD3B2030 N106R (scFv)
scFv: QVQLVQSGAEVKKPGSSVKVSCKASGYTFTRSTMHWVKQAPGQGLEWIGYINPSSAYTNYNQKFQGRVTLTADKSTSTAYMELSSLRSEDTAVYYCASPQVHYDYRGFPYWGQGTLVTVSSGGSEGKSSGSGSESKSTGGSEIVLTQSPATLSASPGERVTLSCSASSSVSYMNWYQQKPGQAPRRWIYDSSKLASGVPARFSGSGSGRDYTLTISSLEPEDFAVYYCQQWSRNPPTFGGGTKVEIK
B5: CD3B2030 N106H (scFv)
scFv: QVQLVQSGAEVKKPGSSVKVSCKASGYTFTRSTMHWVKQAPGQGLEWIGYINPSSAYTNYNQKFQGRVTLTADKSTSTAYMELSSLRSEDTAVYYCASPQVHYDYHGFPYWGQGTLVTVSSGGSEGKSSGSGSESKSTGGSEIVLTQSPATLSASPGERVTLSCSASSSVSYMNWYQQKPGQAPRRWIYDSSKLASGVPARFSGSGSGRDYTLTISSLEPEDFAVYYCQQWSRNPPTFGGGTKVEIK
B6: CD3B2030 N106K (scFv)
scFv: QVQLVQSGAEVKKPGSSVKVSCKASGYTFTRSTMHWVKQAPGQGLEWIGYINPSSAYTNYNQKFQGRVTLTADKSTSTAYMELSSLRSEDTAVYYCASPQVHYDYKGFPYWGQGTLVTVSSGGSEGKSSGSGSESKSTGGSEIVLTQSPATLSASPGERVTLSCSASSSVSYMNWYQQKPGQAPRRWIYDSSKLASGVPARFSGSGSGRDYTLTISSLEPEDFAVYYCQQWSRNPPTFGGGTKVEIK
B7: CD3B2030 N106L (scFv)
scFv: QVQLVQSGAEVKKPGSSVKVSCKASGYTFTRSTMHWVKQAPGQGLEWIGYINPSSAYTNYNQKFQGRVTLTADKSTSTAYMELSSLRSEDTAVYYCASPQVHYDYLGFPYWGQGTLVTVSSGGSEGKSSGSGSESKSTGGSEIVLTQSPATLSASPGERVTLSCSASSSVSYMNWYQQKPGQAPRRWIYDSSKLASGVPARFSGSGSGRDYTLTISSLEPEDFAVYYCQQWSRNPPTFGGGTKVEIK

What was measured:
[1] = target: T1, TRCW5 antigen (CD3δε-Fc-Avi) (biotinylated (site not stated)); assay: ELISA
T1 construct: also called recombinant CD3
T1 sequence (chain, as listed by the source mutant limits assumed): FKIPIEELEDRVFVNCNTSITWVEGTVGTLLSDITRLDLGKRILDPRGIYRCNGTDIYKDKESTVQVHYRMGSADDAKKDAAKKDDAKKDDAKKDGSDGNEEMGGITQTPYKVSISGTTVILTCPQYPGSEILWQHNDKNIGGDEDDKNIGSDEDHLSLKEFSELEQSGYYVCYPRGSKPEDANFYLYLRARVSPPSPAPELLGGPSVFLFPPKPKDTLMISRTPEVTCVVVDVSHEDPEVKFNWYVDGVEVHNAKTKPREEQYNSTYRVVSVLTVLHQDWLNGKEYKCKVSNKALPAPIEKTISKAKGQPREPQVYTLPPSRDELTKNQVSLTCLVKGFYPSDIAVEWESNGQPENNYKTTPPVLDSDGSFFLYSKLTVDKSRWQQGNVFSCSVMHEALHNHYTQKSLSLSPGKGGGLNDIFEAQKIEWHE

[2] = target: T1, TRCW5 antigen (CD3δε-Fc-Avi); assay: binding after heat

Binder	EC50 [1]	% Retained 55° C. [2]	% Retained 60° C. [2]	% Retained 65° C. [2]
B1	9.7 nM	106%	83.3%	21.8%
B2	14.3 nM	115%	59.8%	1.7%
B3	19.1 nM	64.6%	19%	0.6%
B4	10.6 nM	107%	104%	53.8%
B5	10.6 nM	104%	98.9%	55.7%
B6	11.7 nM	99.7%	87.2%	7.3%
B7	11.4 nM	107%	100%	25.6%
